Patent publication US20100041597A1 (published 2010)

T1: PKC-ι (endogenous, human cell extracts) (human, UniProt P41743 2-596)
T1 construct: also called PKC-iota
T1 sequence (looked up): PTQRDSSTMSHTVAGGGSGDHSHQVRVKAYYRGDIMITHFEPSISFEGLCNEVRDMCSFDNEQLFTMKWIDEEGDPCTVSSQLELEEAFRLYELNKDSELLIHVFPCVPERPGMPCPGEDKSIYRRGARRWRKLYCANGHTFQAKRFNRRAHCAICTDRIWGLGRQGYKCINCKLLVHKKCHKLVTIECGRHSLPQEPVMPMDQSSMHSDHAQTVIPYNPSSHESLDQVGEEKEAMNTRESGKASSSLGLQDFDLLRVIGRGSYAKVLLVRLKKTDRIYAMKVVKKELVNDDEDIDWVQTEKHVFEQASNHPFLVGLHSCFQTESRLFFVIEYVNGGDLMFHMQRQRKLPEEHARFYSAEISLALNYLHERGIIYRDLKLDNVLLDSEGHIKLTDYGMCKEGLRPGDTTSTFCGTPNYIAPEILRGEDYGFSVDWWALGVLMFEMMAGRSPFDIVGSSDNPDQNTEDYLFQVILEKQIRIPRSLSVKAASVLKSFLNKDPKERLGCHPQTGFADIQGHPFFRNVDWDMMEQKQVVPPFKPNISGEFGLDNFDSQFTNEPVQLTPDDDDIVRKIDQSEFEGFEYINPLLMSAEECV

T2: PKC-ε (purified isoform) (Homo sapiens (Human), UniProt Q02156 1-737)
T2 construct: also called PKC-epsilon; PKCepsilon
T2 sequence: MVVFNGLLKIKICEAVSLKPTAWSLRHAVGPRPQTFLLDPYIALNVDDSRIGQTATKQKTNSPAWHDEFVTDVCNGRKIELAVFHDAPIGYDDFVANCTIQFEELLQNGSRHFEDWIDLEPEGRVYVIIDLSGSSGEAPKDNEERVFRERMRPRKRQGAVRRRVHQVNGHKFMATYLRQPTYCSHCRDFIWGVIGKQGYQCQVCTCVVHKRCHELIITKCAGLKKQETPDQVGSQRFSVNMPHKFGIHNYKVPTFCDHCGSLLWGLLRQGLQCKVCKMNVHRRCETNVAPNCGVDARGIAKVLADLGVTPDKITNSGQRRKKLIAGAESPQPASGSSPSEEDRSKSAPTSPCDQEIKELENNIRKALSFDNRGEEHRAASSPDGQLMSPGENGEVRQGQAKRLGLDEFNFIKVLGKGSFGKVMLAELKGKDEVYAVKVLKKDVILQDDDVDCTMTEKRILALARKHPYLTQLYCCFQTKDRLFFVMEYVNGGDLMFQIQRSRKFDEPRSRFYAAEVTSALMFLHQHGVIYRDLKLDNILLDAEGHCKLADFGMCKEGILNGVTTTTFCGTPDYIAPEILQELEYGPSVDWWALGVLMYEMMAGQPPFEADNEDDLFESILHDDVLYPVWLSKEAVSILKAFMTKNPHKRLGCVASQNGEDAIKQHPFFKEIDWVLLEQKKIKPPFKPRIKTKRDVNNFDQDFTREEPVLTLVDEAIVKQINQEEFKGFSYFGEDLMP


Columns and labels:
[1] = target: T3, PKC-βII (purified isoform) (Homo sapiens (Human), UniProt P05771 2-621); experiment: competitive ELISA on purified PKC-βII vs anti-PKC-βII Ab; PRE 50 µM
T3 construct: also called PKC-beta II
Procedure: (§1) Greiner 96 well ELISA plates were coated with the appropriate PKC isoform diluted in PBSN (PBS with Calcium/Magnesium+0.05% Sodium azide w/w). 50 μL/well at 250 ng/mL was used. Control wells contained PBSN only. Plates were incubated overnight at 4° C.
(§2) The plates were washed 3 times with 200 μL of dH₂O per well, then 100 μL of blocking solution was added per well and the plate incubated for 1 h at 37° C. The washing steps with dH₂O were repeated and 50 μL of the appropriate PRE solution (PRE stock solution [20 mM in DMSO] diluted in PBSN) was added and the plate incubated for 1 h at room temperature.
(§3) 50 μL of 1:1000 dilution of Alkaline Phosphatase (AP) conjugated antibody (anti-rabbit for all except zeta, which was anti-goat) was then added and the plate incubated for 1 h at room temperature. Washing with dH₂O was then repeated. Finally, 100 μL of pNPP solution in pNPP buffer (2 mM MgCl₂, 100 mM Sodium bicarbonate in water, pH 9.8) was added to all wells and incubated for 8 minutes for α, βI, βII ε, and ζ, or for 15-20 mins for […] (until sufficient coloration is observed). The reaction was stopped by addition of Stop solution (2N NaOH) and the absorbance at 405 nm was read on a Galaxy Plate reader.

[2] = target: T1, PKC-ι (endogenous, human cell extracts); experiment: Western-blot competition on cell extracts against the anti-PKC-ι primary antibody; band densitometry
Procedure: Binding efficiency and specificity of the peptides PRE 2, 3, 4, 5, 6, 7, 8, 9, 10, 11, 12 and 13 (see Table 3) was also tested using cytoplasmic extracts from different cell lines expressing appropriate PKC isoforms as described for Example 1. Briefly, the protein cytoplasmic extracts were separated by electrophoresis and transferred onto nitrocellulose membranes by standard Western blotting procedures. The bands on the Western blots were detected with matching primary antibodies and alkaline phosphatase conjugated secondary antibody. The bands were then scanned and the relative density measurements obtained.
This procedure to assess the binding characteristics of the PREs is based on competition binding of the PRE with the primary anti-isoform PKC specific antibodies. The lower the measured band density, the greater the binding of the PRE to the PKC isoform. The PREs were added at 10 and 20 times (10×, 20×) the primary antibody concentration, according to classical competition between antigenic peptide and primary antibody. The following cell lines (obtained from the ATCC) were used: H661—NCI human lung carcinoma NSCLC; MDAMB231—human highly invasive breast cancer cell line from pleural effusion; LS180—human colon adenocarcinoma; LnCAP—human prostate adenocarcinoma; CCD16Lu—human lung fibroblasts; Du145—human prostate carcinoma brain metastasis, and T24—human bladder carcinoma.

[3] = target: T3, PKC-βII (purified isoform); experiment: competitive ELISA on purified PKC-βII vs anti-PKC-βII Ab; PRE 200 µM
Procedure: as §1, §2, §3

[4] = target: T3, PKC-βII (purified isoform); experiment: competitive ELISA on purified PKC-βII vs anti-PKC-βII Ab; PRE 100 µM
Procedure: as §1, §2, §3

PKC-ε (purified isoform) = target: T2, PKC-ε (purified isoform); experiment: competitive ELISA on purified PKC-ε vs anti-PKC-ε Ab; PRE 100 µM
Procedure: as §1, §2, §3

T3 sequence (P05771 other isoform, or with tags, fused parts or gaps limits assumed): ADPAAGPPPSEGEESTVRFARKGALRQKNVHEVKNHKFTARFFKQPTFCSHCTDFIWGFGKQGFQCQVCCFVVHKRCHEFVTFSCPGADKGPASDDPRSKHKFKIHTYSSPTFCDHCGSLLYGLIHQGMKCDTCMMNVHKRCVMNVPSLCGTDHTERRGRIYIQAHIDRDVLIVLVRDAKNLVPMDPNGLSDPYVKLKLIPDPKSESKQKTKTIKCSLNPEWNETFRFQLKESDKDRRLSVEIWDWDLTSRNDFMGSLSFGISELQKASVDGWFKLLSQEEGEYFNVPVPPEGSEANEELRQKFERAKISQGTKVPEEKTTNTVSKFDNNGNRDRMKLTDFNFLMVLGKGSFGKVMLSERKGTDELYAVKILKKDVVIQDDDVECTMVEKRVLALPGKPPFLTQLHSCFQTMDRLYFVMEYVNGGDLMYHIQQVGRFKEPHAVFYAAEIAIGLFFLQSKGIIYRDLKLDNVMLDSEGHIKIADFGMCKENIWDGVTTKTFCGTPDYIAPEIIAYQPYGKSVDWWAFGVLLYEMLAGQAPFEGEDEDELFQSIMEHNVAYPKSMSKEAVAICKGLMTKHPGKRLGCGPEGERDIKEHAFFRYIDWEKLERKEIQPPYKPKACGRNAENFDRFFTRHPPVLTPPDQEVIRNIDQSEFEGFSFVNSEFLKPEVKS

Row | binding capacity (%) [1] | binding capacity (%) [3] | binding capacity (%) [4] | binding capacity (%) (PKC-ε (purified isoform)) | Binder | binding result [2]
1 | 0.08% | 0% | 0% | – | Ac-KDANQLIGISI-NH2 (Synthetic peptide; also called peptide PRE 6) [PRE 6] | no binding (tested: 20X the primary antibody concentration)
2 | – | – | – | 14% | Ac-ISIGILQNADK-NH2 (Synthetic peptide (retro form of PRE 4); also called peptide PRE 7) [PRE 7] | no binding (tested: 20X the primary antibody concentration)
3 | – | – | – | 13% | Ac-RDAQNLIGISI-NH2 (Synthetic peptide; also called peptide PRE 11) [PRE 11] | –
4 | 0% | 0% | 1.63% | 0% | Ac-RDAQNLI-NH2 (Synthetic peptide; also called peptide PRE 13; Ac-RDAQNLI-NH2) [PRE 13] | no binding (tested: 20X the primary antibody concentration)

Second part, the binder before the results:

Row | Binder | binding capacity (%) [1] | binding capacity (%) [3] | binding capacity (%) [4] | binding capacity (%) (PKC-ε (purified isoform)) | binding result [2]
5 | Ac-KDAQNLIGISI-NH2 (Synthetic peptide; also called peptide PRE 4) [PRE 4] | 2.69% | 1.18% | 13.5% | – | –
6 | Ac-KDAQNLI-NH2 (Synthetic peptide; also called peptide PRE 12; Ac-KDAQNLI-NH2) [PRE 12] | – | – | – | 0.28% | –
7 | Ac-AKGIQEVKGGDAQNLIGISI-NH2 (Synthetic peptide; also called peptide PRE 3) [PRE 3] | – | – | – | 31.5% | –
